# Measured values published in IntAct's records for PubMed 15694340.
# B1: Phorbol-12-myristate-13-acetate-induced protein 1 (Homo sapiens), Q13794 (parent)
# chain: MPGKKARKNAQPSPARAPAELEVECATQLRRFGDKLNFRQKLLNLISKLFCSGT
# partner: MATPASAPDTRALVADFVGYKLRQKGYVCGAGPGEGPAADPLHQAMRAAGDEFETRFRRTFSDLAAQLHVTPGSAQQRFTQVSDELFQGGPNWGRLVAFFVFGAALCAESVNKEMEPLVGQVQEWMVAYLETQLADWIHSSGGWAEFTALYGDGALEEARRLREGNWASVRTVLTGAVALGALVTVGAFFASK
# B2: Phorbol-12-myristate-13-acetate-induced protein 1 (Homo sapiens), Q13794 (parent)
# chain: B1 chain
# B3: Bcl-2-like protein 11 (Mus musculus), O54918 (parent)
# chain: MAKQPSDVSSECDREGGQLQPAERPPQLRPGAPTSLQTEPQGNPDGEGDRCPHGSPQGPLAPPASPGPFATRSPLFIFVRRSSLLSRSSSGYFSFDTDRSPAPMSCDKSTQTPSPPCQAFNHYLSAMASIRQSQEEPEDLRPEIRIAQELRRIGDEFNETYTRRVFANDYREAEDHPQMVILQLLRFIFRLVWRRH
# Variants of: B1
# Details: with BCL2L2, Q92843
row,effect of a mutation on the interaction,Variant
1,increasing interaction,MPGKKARKNAQPSPARAPAELEVECATQLRRIGDKLNFRQKLLNLISKLFCSGT
2,increasing interaction,MPGKKARKNAQPSPARAPAELEVECATQLRRFGDELNFRQKLLNLISKLFCSGT

# Variants of: B2
# Details: with BCL2L1, Q07817-1
# BCL2L1, Q07817-1, sequence (Q07817 whole entry): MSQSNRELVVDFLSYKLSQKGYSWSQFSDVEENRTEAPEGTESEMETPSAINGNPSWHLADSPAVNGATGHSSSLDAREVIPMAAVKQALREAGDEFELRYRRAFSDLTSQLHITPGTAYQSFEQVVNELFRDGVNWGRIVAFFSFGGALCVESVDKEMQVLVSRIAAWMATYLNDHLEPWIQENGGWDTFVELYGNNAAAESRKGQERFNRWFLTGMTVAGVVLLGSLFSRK
row,effect of a mutation on the interaction,Variant
1,increasing interaction,MPGKKARKNAQPSPARAPAELEVECATQLRRIGDKLNFRQKLLNLISKLFCSGT
2,increasing interaction,MPGKKARKNAQPSPARAPAELEVECATQLRRFGDELNFRQKLLNLISKLFCSGT

# Variants of: B3
# Details: with mcl1_mouse Mcl1, P97287
# mcl1_mouse Mcl1, P97287, sequence (P97287 whole entry): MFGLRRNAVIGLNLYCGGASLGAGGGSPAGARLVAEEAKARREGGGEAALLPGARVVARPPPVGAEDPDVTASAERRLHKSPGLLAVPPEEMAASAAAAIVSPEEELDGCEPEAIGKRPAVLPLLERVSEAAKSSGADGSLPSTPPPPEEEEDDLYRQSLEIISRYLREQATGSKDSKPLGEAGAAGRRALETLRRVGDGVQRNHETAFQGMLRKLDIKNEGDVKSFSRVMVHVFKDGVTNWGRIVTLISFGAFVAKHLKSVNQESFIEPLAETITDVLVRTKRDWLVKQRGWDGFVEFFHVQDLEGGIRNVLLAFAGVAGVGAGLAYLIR
row,Variant,effect of a mutation on the interaction
1,MAKQPSDVSSECDREGGQLQPAERPPQLRPGAPTSLQTEPQGNPDGEGDRCPHGSPQGPLAPPASPGPFATRSPLFIFVRRSSLLSRSSSGYFSFDTDRSPAPMSCDKSTQTPSPPCQAFNHYLSAMASIRQSQEEPEDLRPEIRIAQELRREGDEFNETYTRRVFANDYREAEDHPQMVILQLLRFIFRLVWRRH,decreasing interaction
2,MAKQPSDVSSECDREGGQLQPAERPPQLRPGAPTSLQTEPQGNPDGEGDRCPHGSPQGPLAPPASPGPFATRSPLFIFVRRSSLLSRSSSGYFSFDTDRSPAPMSCDKSTQTPSPPCQAFNHYLSAMASIRQSQEEPEDLRPEIRIAQEERRIGDEFNETYTRRVFANDYREAEDHPQMVILQLLRFIFRLVWRRH,decreasing interaction

# Continued, values first:
row,effect of a mutation on the interaction,Variant
1,decreasing interaction,MAKQPSDVSSECDREGGQLQPAERPPQLRPGAPTSLQTEPQGNPDGEGDRCPHGSPQGPLAPPASPGPFATRSPLFIFVRRSSLLSRSSSGYFSFDTDRSPAPMSCDKSTQTPSPPCQAFNHYLSAMASIRQSQEEPEDLRPEIRIAQELRRIGDEENETYTRRVFANDYREAEDHPQMVILQLLRFIFRLVWRRH
2,decreasing interaction,MAKQPSDVSSECDREGGQLQPAERPPQLRPGAPTSLQTEPQGNPDGEGDRCPHGSPQGPLAPPASPGPFATRSPLFIFVRRSSLLSRSSSGYFSFDTDRSPAPMSCDKSTQTPSPPCQAFNHYLSAMASIRQSQEEPEDLRPEIREAQELRRIGDEFNETYTRRVFANDYREAEDHPQMVILQLLRFIFRLVWRRH
